The values below come from the supplement of paper PMC12764529.

A short description of data set [1]: folding stability dG unfold from trypsin proteolysis; higher = more stable. As for the experimental part:
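Folding stability of de novo designed mini-proteins (<80 aa, no Cys; designed by TrROS, TrMRF, ProteinMPNN and the joint model) was measured by cDNA display proteolysis with trypsin and chymotrypsin. Each protease was used at 11 concentrations in a threefold dilution series plus a no-protease condition. K50 was inferred by Bayesian fitting of sequencing counts, and dG unfold was derived against a sequence-predicted unfolded-state K50 (Tsuboyama et al. method). Sequences shown include variable-length N-terminal GS-type padding (SAGGSAGG...) inside a display construct carrying a PA tag. Rows were kept only if the AF2 dimer inter-PAE was >15, to exclude likely homo-oligomers.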

Data set [2] can be described thus: folding stability dG unfold (combined trypsin and chymotrypsin); higher = more stable. The essentials: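 How resistant each design was to proteolysis was captured as K50, inferred by Bayesian fitting of sequencing counts. Unfolding free energy was then derived relative to a sequence-predicted unfolded-state K50 and a shared folded-state K50, per protease or combined. Digestion used trypsin and chymotrypsin at 11 threefold-diluted concentrations plus a no-protease condition, on mini-proteins under 80 residues without cysteine in a PA-tagged cDNA display construct. Designs were kept only when AlphaFold2 dimer inter-PAE was above 15.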

± gives the half width of the 95% confidence interval. A value given as a limit tells only on which side of the number the result lay.

As for “SAGGSAGGSASVSSPERFTVPRPDGTPVEVTLVEPEKGYYEVTDPATGERTRLPIEDIPPVSAGGSAGGSAG [r3_213_JUSTAS]”, the “folding stability dG unfold” value in data set [1] was -0.607 ± 0.12 kcal/mol; in data set [2] it was below -1 kcal/mol.
For “SAGGSAGGSATVDEVIKEAREEAREEHPNYPPGQTHTIKIRDPDNGEKVKIRFTNDGKIEISAGGSAGGSAG [r3_441_TrROS]”, the “folding stability dG unfold” value in data set [1] was -0.0324 ± 0.057 kcal/mol; in data set [2] it was below -1 kcal/mol.
With “SAGGSAGGSDILKNLPPGHKRVEIMFIPNMPMEKMKRMAKEIAPILRKRGVDVEIKVIPPDEMSAGGSAGGS [r12_456_TrROS]”, the “folding stability dG unfold” value in data set [1] was found to be 0.859 ± 0.17 kcal/mol; in data set [2] it was 0.118 ± 0.36 kcal/mol.
As for “SAGGSAGGSGMEEAIEKAKKEILEKNPDLPPNAVVNEPILVKDPSTDEEYVIPVTFTIPENNLSAGGSAGGS [r12_591_JUSTAS]”, the “folding stability dG unfold” value in data set [1] is -0.137 ± 0.063 kcal/mol; in data set [2] it was -0.61 ± 0.67 kcal/mol.
In the case of “SAGGSAGGSGMKPAKVLKVEEFFDPKNNTSFKKVEAELPDRKITLELPPGEPVDENSTILVEESAGGSAGGS [r20_49_JUSTAS]”, the “folding stability dG unfold” value was -0.428 ± 0.28 kcal/mol in data set [1] and -0.759 ± 0.47 kcal/mol in data set [2].
Turning to “SAGGSAGGSGMVSSVVKHTVELNVPENRPNAEELAAELRAAHPGVTVVEITETPNKAVITVEESAGGSAGGS [r12_454_JUSTAS]”, the entries for the “folding stability dG unfold” value in data set [1] and in data set [2] were 0.296 ± 0.062 kcal/mol and below -1 kcal/mol, respectively.
Consider “SAGGSAGGSIEIDHDRDPGTNRYTATVEIPDPDGKGLEVEVQMNGDPEDAAKTAAKTVLEEFNSAGGSAGGS [r20_33_TrROS]”, for which the figures for the “folding stability dG unfold” value in data set [1] and in data set [2] were 0.07 ± 0.27 kcal/mol and below -1 kcal/mol, respectively.
Consider “SAGGSAGGSKIPIHIWVPPGGSPKKAKERIRRYIREQMPPGNKDMPIDDIKIDVHVMPPGQPVSAGGSAGGS [r12_384_TrROS]”, for which the “folding stability dG unfold” value was -0.427 ± 0.9 kcal/mol in data set [1] and below -1 kcal/mol in data set [2].
In the same order, the values of “SAGGSAGGSMDPGQPMEFIQIYPDPDGNLEIHVSEIRIDPDGGAKVTEVEPKRIDDAEDLAKFSAGGSAGGS [r12_386_TrROS]” are -0.752 ± 0.19 kcal/mol and below -1 kcal/mol.
Turning to “SAGGSAGGSMMKVRVYARNKDGEEVPVEEIEIPPEVETPEEALKLAEELAKKEGVEEVRVEIESAGGSAGGS [r12_569_TrROS_Hall]”, the “folding stability dG unfold” value in data set [1] was -0.13 ± 0.19 kcal/mol; in data set [2], -0.609 ± 0.38 kcal/mol.
“SAGGSAGGSMRFVTIKVPGPDTTFTFDTDGDEALEAKLAELEKKHPEIKKENIEKLEVNPGPGSAGGSAGGS [r12_852_JUSTAS]”: the “folding stability dG unfold” value in data set [1] was -0.345 ± 0.52 kcal/mol; in data set [2] it was below -1 kcal/mol.
Turning to “SAGGSAGGSMSTSESVTVTFPDGSVRKATILKQEKLPNGTVPVEIVDEGGTSVGTRNWTVTAESAGGSAGGS [r12_735_JUSTAS]”, the “folding stability dG unfold” value in data set [1] is -0.456 ± 0.28 kcal/mol; in data set [2] it was below -1 kcal/mol.
In the same order, the values of “SAGGSAGGSMVLIEIYFKGPEKPIVFPAEGPEEVVEKLLELVEENPELGLDNIAEIRAYPGEESAGGSAGGS [r12_852_TrMRF]” are 0.425 ± 0.074 kcal/mol and 0.0303 ± 0.28 kcal/mol.
The like results for “SAGGSAGGSMVLIIVPPSKPELAEEKAKELAEKGEIKEYEIKTVSSEEEAEKLAKNYEKVILESAGGSAGGS [r12_679_JUSTAS]” were, in that order, -0.171 ± 0.083 kcal/mol and -0.324 ± 0.28 kcal/mol.
In the same order, the values of “SAGGSAGGSMVTTSIDPSGTAKITVTDGGGVPVSTATIPVDPNAILTYDPNNSSISTFSPVSSSAGGSAGGS [r12_1002_JUSTAS]” are 0.519 ± 0.032 kcal/mol and -0.442 ± 0.24 kcal/mol.
As to “SAGGSAGGSMYRYTVTFPNTGTVLEKEFESLEEAKKYIPKDRPIKEIKVEPVEPPVSPEVLLVSAGGSAGGS [r12_851_JUSTAS]”, the “folding stability dG unfold” value is -0.217 ± 0.18 kcal/mol in data set [1] and -0.651 ± 0.26 kcal/mol in data set [2].
In the same order, the values of “SAGGSAGGSPDNITFKVPDGPVRIENGNNEQEFPPGKTQTIPPKNPNNMRIEAFPPNIIKITPSAGGSAGGS [r20_150_TrROS]” are -0.793 ± 0.45 kcal/mol and below -1 kcal/mol.
In the case of “SAGGSAGGSPVTVETSSQTSTVPLPTGPTVTLVTNTTTTTRPVPLSTPRSSSTTTVTTTVTVVSSAGGSAGG [r6_224_JUSTAS]”, the “folding stability dG unfold” value in data set [1] was -0.311 ± 0.11 kcal/mol; in data set [2], below -1 kcal/mol.
In the same order, the values of “SAGGSAGGSSDTRTIPIPIDGYPVRISIDMNGSQTIEFPNPENKDDLKDLIPPGYNITEIEPWSAGGSAGGS [r12_9_TrROS]” are -0.999 ± 0.36 kcal/mol and below -1 kcal/mol.
In the same order, the values of “SAGGSAGGSSPDIEVEITVDAPPGARILGTDGKPVEIPASNPKVKIIVIEGDNSFFIKTEPVGSAGGSAGGS [r12_338_TrMRF]” are -0.362 ± 0.22 kcal/mol and below -1 kcal/mol.
On to “SAGGSAGGSSPEIPLPPEIAEEIEVPGSGTTVLLHPSTGLVLYKPPPEELAVGRYDPSTGVLESAGGSAGGS [r12_420_JUSTAS]”, for which the results for the “folding stability dG unfold” value in data set [1] and in data set [2] were 0.985 ± 0.051 kcal/mol and 0.475 ± 0.15 kcal/mol, respectively.
In the same order, the values of “SAGGSAGGSSPIVVEEEPDRYVITIPPSQPELVEEVLEKLGLPAEDITRTLIPEGLVRYEVPGSAGGSAGGS [r12_493_JUSTAS]” are -0.419 ± 0.28 kcal/mol and below -1 kcal/mol.
Turning to “SAGGSAGGSTPPLTTETEAVIEIEGGLYSVKVTQLPPDETLMTIPANGMIIRETPDKIEIRPESAGGSAGGS [r12_737_JUSTAS]”, the entries for the “folding stability dG unfold” value in data set [1] and in data set [2] were -0.374 ± 0.28 kcal/mol and below -1 kcal/mol, respectively.
As for “SAGGSAGGSVEIKSITTVTDPNSSANPTTITVKRDPAKGVLGEEVKAIAKALEEAGYPTTFGTSAGGSAGGS [r12_172_JUSTAS]”, the “folding stability dG unfold” value in data set [1] was -0.769 ± 0.17 kcal/mol; in data set [2] it was below -1 kcal/mol.
In the case of “SAGGSAGGYVEVTIMIPPDDLDEIKEIAEPFGFTSVETERVPDNPMVVVKIEVKIPKEDDKDNKSAGGSAGG [r6_273_TrROS]”, the results for the “folding stability dG unfold” value in data set [1] and in data set [2] were 0.427 ± 0.054 kcal/mol and -0.139 ± 0.2 kcal/mol, respectively.
The like results for “SAGGSALPPDQRLVVIDLGREPGVTPDEPVEVPEELIEKIKKENPNVKLVEVKHEGDKVTLYIAIKSAGGSA [r2_383_JUSTAS]” were, in that order, -0.0124 ± 0.48 kcal/mol and below -1 kcal/mol.
Turning to “SAGGSAMIKTYEEEVELTVPGGSTPVKVRVKTIEKIEKDEKGNLKTEVVEVKIETPENAPAVALLLSAGGSA [r15_258_JUSTAS]”, the results for the “folding stability dG unfold” value in data set [1] and in data set [2] were -0.327 ± 0.21 kcal/mol and -0.857 ± 0.51 kcal/mol, respectively.
As for “SAGGSAMPPGQPWKIKRTIPFKDPNGWKITIYRMPDDGHVWVRWEPPNGGEREVWMPAEEAEDALKSAGGSA [r15_2_TrROS]”, the “folding stability dG unfold” value turned out to be 0.902 ± 0.23 kcal/mol in data set [1] and 0.307 ± 0.58 kcal/mol in data set [2].
On to “SAGGSAMVPEDEGLIVVERDVPFDKAEEFVEEVIEELGIPPEKVKKIELFEEKVEDGPALRALVYLSAGGSA [r15_934_TrMRF]”, for which the “folding stability dG unfold” value in data set [1] was -0.294 ± 0.32 kcal/mol; in data set [2], below -1 kcal/mol.
The like results for “SAGGSAPGKKTIKIEIIFPFPEEQAKEFADYIAKGIADETGHDPENIDIKVEVHVFDPANNEPRPFSAGGSA [r15_918_TrROS]” were, in that order, -0.236 ± 0.2 kcal/mol and -0.511 ± 0.25 kcal/mol.
For “SAGGSASMITSTLTDPSTGTSSTLPTEVLQKLLDENPPDSNLVLPTGPKPVTVKVEPEKGLATFTGSAGGSA [r15_350_JUSTAS]”, the “folding stability dG unfold” value was 0.153 ± 0.039 kcal/mol in data set [1] and -0.989 ± 0.29 kcal/mol in data set [2].
For the sequence “SAGGSASYSSLKITIIDTGTTTTVPPGATTTPTVVKLPDNKTAIITTTTPPDGTTATTVELFDNDKSAGGSA [r15_559_JUSTAS]”, the entries for the “folding stability dG unfold” value in data set [1] and in data set [2] were -0.717 ± 0.12 kcal/mol and below -1 kcal/mol, respectively.
